Where no end group is shown, it is not given here.
B1: sCT-SMCC (peptide)
peptide: CSNLSTCVLGKLSQELHKLQTYPRTNTGSGTP
modifications: ends and bridges not checked; also: mixture of mono-, di- and tri-substituted: SMCC group in amide bond on Lys11, Lys18 and/or N-terminus
B2: sCT-BP (peptide)
peptide: B1 peptide
modifications: ends and bridges not checked; also: mixture: SMCC linker carrying thiol bisphosphonate on Lys11, Lys18 and/or N-terminus (2-3 SMCC, 1-3 BP)

Target: T1, calcitonin receptor (human, UniProt P30988 25-474)
T1 sequence (looked up): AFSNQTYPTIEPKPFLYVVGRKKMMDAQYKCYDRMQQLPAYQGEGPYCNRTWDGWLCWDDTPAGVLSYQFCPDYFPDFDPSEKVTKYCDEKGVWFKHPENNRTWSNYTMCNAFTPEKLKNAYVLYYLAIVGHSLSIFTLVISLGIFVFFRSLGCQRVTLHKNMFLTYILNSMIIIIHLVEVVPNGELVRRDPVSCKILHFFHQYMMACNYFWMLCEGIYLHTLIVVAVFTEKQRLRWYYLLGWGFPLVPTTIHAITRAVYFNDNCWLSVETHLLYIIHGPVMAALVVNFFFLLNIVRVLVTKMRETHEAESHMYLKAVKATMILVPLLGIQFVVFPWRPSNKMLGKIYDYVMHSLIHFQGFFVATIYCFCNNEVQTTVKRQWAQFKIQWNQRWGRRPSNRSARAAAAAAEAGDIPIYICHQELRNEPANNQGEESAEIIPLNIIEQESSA
Experiment: cell-based or functional assay

Binder | intracellular cAMP in T47D cells, % of native sCT activity, at 50 nM | intracellular cAMP in T47D cells, % of native sCT activity, at 100 nM | intracellular cAMP in T47D cells, % of native sCT activity, at 10 mM (so in the source)
B1 | 98% | 115% | 94.3%
B2 | 102% | 99.8% | 92.8%

— patent US20120270787A1 (GOVERNORS OF THE UNIVERSITY OF ALBERTA, published 2012)
